Laboratory results from patent publication US20230277625A1 (SIMCHA IL 18, published 2023).
Substitutions are numbered along the chain they refer to. Numbers in names are those of the source.

B1: SEQ ID NO: 19 (stabilized human DR-IL-18; SEQ ID NO: 89 plus C38S/C68D) (ligand)
chain: YFGKLESKLSVIRNLNDQVLFIDQGNRPLFEDMTDSDSRDNAPRTIFIISKYSDSLARGLAVTISVKDEKISTLSCENKIISFKEMNPPDNIKDTKSDIIFFQRDVPGHSRKMQFESSSYEGYFLACEKERDLFKLILKKEDELGDRSIMFTVQNED
B2: SEQ ID NO: 88 (second generation human DR-IL-18 variant 6-20) (ligand)
chain: B1 chain with S38C, S53G, L56R, A57P, L60M, D68C, D105A, S110N
notes: Engineered variant
B3: Human IL-18BP (amino acids 31-194), biotinylated (receptor)
chain: TPVSQTTTAATASVRSTKDPCPSQPPVFPAAKQCPALEVTWPEVEVPLNGTLSLSCVACSRFPNFSILYWLGNGSFIEHLPGRLWEGSTSRERGSTGTQLCKALVLEQLTPALHSTNFSCVLVDPEQVVQRHVVLAQLWAGLRATLPPTQEALPSSHSSPQQQGGLNDIFEAQKIEWHEHHHHHH
modifications: biotin on the AviTag (BirA ligase) where used biotinylated
notes: Soluble decoy receptor; also called hIL-18BP; recombinant IL-18BP

Key:
[1] = target: T1, Cynomolgus monkey IL-18Rα, biotinylated (cynomolgus monkey, UniProt A0A2K5V3J9 19-328, biotinylated); experiment: SPR single-cycle kinetics, biotinylated cynomolgus IL-18Rα on a streptavidin capture chip, IL-18 variant as analyte
T1 sequence: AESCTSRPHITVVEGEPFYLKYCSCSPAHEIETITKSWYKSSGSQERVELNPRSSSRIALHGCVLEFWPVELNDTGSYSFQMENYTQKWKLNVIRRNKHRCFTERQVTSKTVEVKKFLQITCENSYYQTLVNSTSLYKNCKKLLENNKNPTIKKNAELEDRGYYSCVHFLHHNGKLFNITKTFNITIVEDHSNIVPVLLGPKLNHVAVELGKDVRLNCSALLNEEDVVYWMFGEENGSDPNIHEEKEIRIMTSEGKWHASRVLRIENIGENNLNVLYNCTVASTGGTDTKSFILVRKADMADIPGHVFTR
Experimental: (§1) IL-18 receptor affinity. The affinities of human IL-18 and SEQ ID NO: 19 were determined for both human and cynomolgus monkey IL-18Rα and IL-18BP using surface plasmon resonance. Biotinylated receptor proteins were immobilized on a streptavidin capture chip and IL-18 or SEQ ID NO: 19 were applied as the free analyte. […] were used to determine binding. WT hIL-18 and SEQ ID NO: 19 had similar binding affinity for IL-18Rα in this assay (FIG. 37A).

[2] = target: T2, IL-18 receptor (IL-18Rα / IL-18Rβ heterodimer) on HEK-Blue IL-18 reporter cells (UniProt Q13478 19-541; O95256 20-599, limits assumed); experiment: cell-based or functional assay
T2 sequence (looked up) 1: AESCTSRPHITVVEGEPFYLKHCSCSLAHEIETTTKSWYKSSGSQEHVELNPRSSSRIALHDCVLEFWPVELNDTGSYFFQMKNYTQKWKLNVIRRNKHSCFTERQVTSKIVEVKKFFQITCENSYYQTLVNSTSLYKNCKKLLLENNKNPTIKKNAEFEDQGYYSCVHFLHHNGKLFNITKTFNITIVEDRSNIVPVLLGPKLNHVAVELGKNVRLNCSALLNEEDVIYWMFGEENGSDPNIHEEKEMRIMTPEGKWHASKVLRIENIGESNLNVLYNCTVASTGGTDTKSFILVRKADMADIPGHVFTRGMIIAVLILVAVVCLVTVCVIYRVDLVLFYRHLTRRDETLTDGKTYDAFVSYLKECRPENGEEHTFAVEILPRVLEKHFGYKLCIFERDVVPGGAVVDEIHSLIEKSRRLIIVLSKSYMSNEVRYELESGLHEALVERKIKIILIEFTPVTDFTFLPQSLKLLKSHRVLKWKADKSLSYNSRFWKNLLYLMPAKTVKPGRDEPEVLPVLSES
T2 sequence (looked up) 2: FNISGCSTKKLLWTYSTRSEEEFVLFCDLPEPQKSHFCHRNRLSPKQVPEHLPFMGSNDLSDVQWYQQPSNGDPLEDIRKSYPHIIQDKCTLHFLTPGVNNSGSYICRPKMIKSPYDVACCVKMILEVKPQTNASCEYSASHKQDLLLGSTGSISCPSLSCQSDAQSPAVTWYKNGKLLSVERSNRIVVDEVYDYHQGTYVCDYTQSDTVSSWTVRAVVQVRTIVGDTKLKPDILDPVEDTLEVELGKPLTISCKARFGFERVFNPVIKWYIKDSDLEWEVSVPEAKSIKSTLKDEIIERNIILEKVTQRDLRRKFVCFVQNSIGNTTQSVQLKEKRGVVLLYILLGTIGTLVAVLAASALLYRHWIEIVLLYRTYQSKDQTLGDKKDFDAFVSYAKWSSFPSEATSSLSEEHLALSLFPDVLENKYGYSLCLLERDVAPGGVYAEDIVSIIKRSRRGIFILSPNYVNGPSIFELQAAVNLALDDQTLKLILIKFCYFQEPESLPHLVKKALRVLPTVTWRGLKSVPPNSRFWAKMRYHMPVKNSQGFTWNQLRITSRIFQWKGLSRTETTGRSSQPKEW

[3] = target: T3, Human IL-18Rα ectodomain (amino acids 19-329), biotinylated (human, UniProt Q13478 19-329, biotin on the AviTag (BirA ligase)); experiment: SPR single-cycle kinetics, biotinylated hIL-18Rα on a streptavidin capture chip, IL-18 variant as analyte
T3 construct: range 19-329; Secreted from insect cells (gp67 signal peptide removed); also called hIL-18Rα; hIL18Rα
T3 sequence: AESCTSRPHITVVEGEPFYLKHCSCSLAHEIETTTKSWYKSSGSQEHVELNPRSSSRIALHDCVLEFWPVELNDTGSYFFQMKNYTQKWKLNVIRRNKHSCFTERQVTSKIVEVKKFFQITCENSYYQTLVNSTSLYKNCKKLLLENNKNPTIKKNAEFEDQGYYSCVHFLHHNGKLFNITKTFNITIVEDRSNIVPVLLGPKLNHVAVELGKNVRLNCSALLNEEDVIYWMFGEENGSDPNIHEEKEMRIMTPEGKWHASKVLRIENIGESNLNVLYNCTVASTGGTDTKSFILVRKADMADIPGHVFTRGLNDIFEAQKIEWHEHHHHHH
Experimental: as §1

[4] = target: B3; experiment: on-yeast binding isotherm (flow cytometry), drawn summary table, column IL18BP (KD); IL18Rα column reads N.D.
[5] = target: B3; experiment: on-yeast binding isotherm (flow cytometry)
[6] = target: T4, Human Interleukin-18 (mature form), wild type (human, UniProt Q14116 37-193); experiment: cell-based or functional assay
T4 sequence: B1 chain with S38C, K51M, S53K, L56Q, A57P, L60M, D68C, D105S, S110D, R111N

[7] = target: T4, Human Interleukin-18 (mature form), …; experiment: competition on yeast (flow cytometry): hIL-18BP titrated against a fixed 100 nM biotinylated hIL-18Rα on yeast-displayed IL-18
Experimental: By contrast, IL-18BP effectively neutralizes the IL-18 E42A, K89A and E42A/K89A previously described (Kim et al., 2001, Proc. Natl. Acad. Sci., 98(6):3304-3309) (shown in chart on right) [E42 and K89 of Kim et al. are E6 and K53 of SEQ ID NO: 30, respectively]. Biotinylated IL-18Rα was kept at a fixed concentration of 100 nM for all samples.
Individual colonies of IL-18 yeast were grown overnight at 30° C. in SDCAA liquid media and induced in SGCAA liquid media for 1 day at 20° C. IL-18 display levels on yeast were verified by flow cytometry using an anti-cMyc tag antibody (anti-myc-PE; Cell Signaling Technologies). Receptor staining with biotinylated IL-18Rα (with or without IL-18R β) or biotinylated IL-18BP was performed in PBS supplemented with 0.5% BSA and 2 mM EDTA (PBE) on ice. All analysis was performed on a Sony SA3800 flow cytometer.

Binder: B1
- Kd [1]: 10.9 nM
- EC50-#1 (M), HEK-Blue reporter [2]: 1.24e-10 M
- EC50-#2 (M), HEK-Blue reporter [2]: 7.9e-11 M
- Kd [3]: 18.8 nM

Binder: B2
- Kd [4]: 340 nM
- Kd [5]: 340 nM

Binder: B3
- IC50 of recombinant IL-18BP in the HEK Blue IL-18 signaling assay (hIL-18 fixed at 5 nM) [6]: 3 nM
- IC50 (read off the curve) [7]: ~20 nM
